Data: US20260201067A1, “DPP3 INHIBITOR FOR IMPROVEMENT OF PULMONARY FUNCTION IN CRITICALLY ILL PATIENTS” (4TEEN4 Pharmaceuticals GmbH, priority 2022, published 2026)
“Also recorded” adds a separate entry of the source. Values belong to the molecule of their own block, whether it stands above or below them.

How the values were obtained:
[1] = molecular target: T1, DPP3 (Homo sapiens, UniProt Q9NY33); settings: literature; cited from earlier work
T1 sequence (Q9NY33 1-737): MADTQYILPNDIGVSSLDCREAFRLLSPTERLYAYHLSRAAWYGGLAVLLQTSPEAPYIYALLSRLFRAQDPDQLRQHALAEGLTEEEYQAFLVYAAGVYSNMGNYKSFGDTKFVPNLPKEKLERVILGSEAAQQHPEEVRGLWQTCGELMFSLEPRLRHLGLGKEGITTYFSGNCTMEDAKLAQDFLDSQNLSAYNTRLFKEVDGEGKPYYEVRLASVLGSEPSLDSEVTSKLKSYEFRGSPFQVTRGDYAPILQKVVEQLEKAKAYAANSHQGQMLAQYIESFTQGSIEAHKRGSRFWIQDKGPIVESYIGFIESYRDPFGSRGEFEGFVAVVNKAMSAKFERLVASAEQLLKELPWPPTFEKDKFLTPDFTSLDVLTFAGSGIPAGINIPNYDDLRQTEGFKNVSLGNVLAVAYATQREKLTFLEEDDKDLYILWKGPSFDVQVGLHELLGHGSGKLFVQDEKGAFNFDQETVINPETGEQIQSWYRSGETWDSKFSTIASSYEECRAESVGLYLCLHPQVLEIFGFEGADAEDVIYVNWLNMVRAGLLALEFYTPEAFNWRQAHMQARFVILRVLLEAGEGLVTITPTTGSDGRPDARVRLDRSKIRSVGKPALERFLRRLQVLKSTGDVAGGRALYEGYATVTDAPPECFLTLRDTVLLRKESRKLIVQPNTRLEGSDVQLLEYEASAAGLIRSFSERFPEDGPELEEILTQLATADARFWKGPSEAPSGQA

[2] = test system: healthy mice injected with DPP3; assay: Effect of Valsartan in healthy mice injected with DPP3; format: in vivo, Black 6 mice
Method: In this experiment, healthy Black 6 mice (8-12 weeks, group size refer to table 8) consumed water with 50 mg/kg Valsartan per day or just water (Table 8) for a period of two weeks. Subsequently, both groups received an intravenous injection of native DPP3 (600 μg/kg) and the shortening fraction was assessed according to Gao et al., 2011 at 15, 60 and 120 minutes (FIG. 12).

[3] = test system: healthy mice; assay: Effect of native DPP3 injection in healthy mice; format: in vivo, Black 6 mice; settings: 600 μg/kg i.v., versus PBS
Method: Wild type Black 6 mice (8-12 weeks, group size refer to table 3) were acclimated during 2 weeks and a baseline echocardiography was done. The mice were randomly allocated to one of the two groups and, subsequently, native DPP3 protein or PBS were injected intravenously via a retro-orbital injection with a dose of 600 μg/kg for DPP3 protein.
After DPP3 or PBS injection, cardiac function was assessed by echocardiography (Gao et al. 2011) and renal function assessed by renal resistive index (Lubas et al., 2014, Dewitte et al, 2012) at 15, 60 and 120 minutes (FIG. 3).

[4] = molecular target: T2, native human DPP3 from blood cells (human, UniProt Q9NY33 2-737); assay: cell-based or functional assay
T2 sequence: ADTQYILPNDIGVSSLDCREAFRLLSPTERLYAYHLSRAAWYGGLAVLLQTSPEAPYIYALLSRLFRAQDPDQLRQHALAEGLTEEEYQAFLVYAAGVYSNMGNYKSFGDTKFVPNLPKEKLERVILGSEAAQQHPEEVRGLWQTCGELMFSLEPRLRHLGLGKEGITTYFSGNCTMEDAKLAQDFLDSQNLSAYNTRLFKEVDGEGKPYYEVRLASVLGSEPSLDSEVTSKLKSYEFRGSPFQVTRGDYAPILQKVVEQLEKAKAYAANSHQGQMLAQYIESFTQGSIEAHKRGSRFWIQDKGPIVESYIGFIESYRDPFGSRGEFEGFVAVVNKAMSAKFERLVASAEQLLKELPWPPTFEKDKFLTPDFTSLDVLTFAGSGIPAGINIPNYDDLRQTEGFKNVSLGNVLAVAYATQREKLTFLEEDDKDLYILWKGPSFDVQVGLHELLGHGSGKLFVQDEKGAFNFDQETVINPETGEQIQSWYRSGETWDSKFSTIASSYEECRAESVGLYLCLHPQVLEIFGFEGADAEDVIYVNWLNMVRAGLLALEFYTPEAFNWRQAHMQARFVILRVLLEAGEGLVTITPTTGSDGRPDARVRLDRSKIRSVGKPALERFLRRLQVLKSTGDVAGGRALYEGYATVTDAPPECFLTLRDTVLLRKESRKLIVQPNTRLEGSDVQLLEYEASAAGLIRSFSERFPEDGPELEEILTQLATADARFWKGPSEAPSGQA

Molecule: Cc1cc(=O)c2c(cc(O)c3c4c(O)cccc4c(=O)c32)c1=O [Fluostatin A]
inhibition of DPP3 activity [1]: strongly inhibit DPP3 activity

Molecule: CC1C(=O)c2cc(O)c3c(c2C(O)C1O)C(=O)c1cccc(O)c1-3 (stereo not drawn) [Fluostatin B]
inhibition of DPP3 activity [1]: strongly inhibit DPP3 activity

Molecule: CCCCC(=O)N(Cc1ccc(-c2ccccc2-c2nnn[nH]2)cc1)[C@H](C(=O)O)C(C)C [Valsartan]
shortening fraction after DPP3 injection ([2]; 50 mg/kg Valsartan per day in water for two weeks, then native DPP3 600 μg/kg i.v.): rescued; also recorded: no signs of heart dysfunction

B1: native DPP3: native human DPP3 purified from human erythrocyte lysate (protein)
chain: ADTQYILPNDIGVSSLDCREAFRLLSPTERLYAYHLSRAAWYGGLAVLLQTSPEAPYIYALLSRLFRAQDPDQLRQHALAEGLTEEEYQAFLVYAAGVYSNMGNYKSFGDTKFVPNLPKEKLERVILGSEAAQQHPEEVRGLWQTCGELMFSLEPRLRHLGLGKEGITTYFSGNCTMEDAKLAQDFLDSQNLSAYNTRLFKEVDGEGKPYYEVRLASVLGSEPSLDSEVTSKLKSYEFRGSPFQVTRGDYAPILQKVVEQLEKAKAYAANSHQGQMLAQYIESFTQGSIEAHKRGSRFWIQDKGPIVESYIGFIESYRDPFGSRGEFEGFVAVVNKAMSAKFERLVASAEQLLKELPWPPTFEKDKFLTPDFTSLDVLTFAGSGIPAGINIPNYDDLRQTEGFKNVSLGNVLAVAYATQREKLTFLEEDDKDLYILWKGPSFDVQVGLHELLGHGSGKLFVQDEKGAFNFDQETVINPETGEQIQSWYRSGETWDSKFSTIASSYEECRAESVGLYLCLHPQVLEIFGFEGADAEDVIYVNWLNMVRAGLLALEFYTPEAFNWRQAHMQARFVILRVLLEAGEGLVTITPTTGSDGRPDARVRLDRSKIRSVGKPALERFLRRLQVLKSTGDVAGGRALYEGYATVTDAPPECFLTLRDTVLLRKESRKLIVQPNTRLEGSDVQLLEYEASAAGLIRSFSERFPEDGPELEEILTQLATADARFWKGPSEAPSGQA
renal resistive index [3]: renal resistive index increase
shortening fraction [3]: significantly reduced shortening fraction
renal resistive index ([3]; listed as DPP3): increased renal resistive index
shortening fraction ([3]; listed as DPP3): shortening fraction reduction
shortening fraction after DPP3 injection ([2]; native DPP3 600 μg/kg i.v., no Valsartan): significant decrease in the shortening fraction

IC50 (read off the curve) [4]: ~10 ng/mL
B2: murine monoclonal anti-DPP3 antibody AK1967 (antibody, V domains shown)
VH: QVTLKESGPGILQPSQTLSLTCSFSGFSLSTSGMSVGWIRQPSGKGLEWLAHIWWNDNKSYNPALKSRLTISRDTSNNQVFLKIASVVTADTGTYFCARNYSYDYWGQGTTLTVSS
VL: DVVVTQTPLSLSVSLGDPASISCRSSRSLVHSIGSTYLHWYLQKPGQSPKLLIYKVSNRFSGVPDRFSGSGSGTDFTLKISRVEAEDLGVYFCSQSTHVPWTFGGGTKLEIK
